Assay results reported in patent US20220380801A1 (AstraZeneca / MedImmune, published 2022).

T1: HCV NS3/4A PR K136N (S139A background), in the presence of simeprevir (Hepatitis C virus subtype 1a)
T1 chain: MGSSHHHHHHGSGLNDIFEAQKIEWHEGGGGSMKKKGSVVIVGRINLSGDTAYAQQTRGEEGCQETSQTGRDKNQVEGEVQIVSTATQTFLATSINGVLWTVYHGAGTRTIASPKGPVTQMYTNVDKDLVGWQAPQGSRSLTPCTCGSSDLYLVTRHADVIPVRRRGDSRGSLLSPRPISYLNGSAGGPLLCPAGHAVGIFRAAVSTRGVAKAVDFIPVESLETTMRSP

T2: HCV NS3/4A PR K136D (S139A background), in the presence of simeprevir (Hepatitis C virus subtype 1a)
T2 chain: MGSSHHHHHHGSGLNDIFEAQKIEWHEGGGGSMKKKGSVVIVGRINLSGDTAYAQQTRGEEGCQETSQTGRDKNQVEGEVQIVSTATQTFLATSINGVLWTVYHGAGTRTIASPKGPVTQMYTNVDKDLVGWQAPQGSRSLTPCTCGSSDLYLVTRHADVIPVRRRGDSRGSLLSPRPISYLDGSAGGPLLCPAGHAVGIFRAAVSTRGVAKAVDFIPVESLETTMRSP

T3: HCV NS3/4A PR D168E (S139A background), in the presence of simeprevir (Hepatitis C virus subtype 1a)
T3 chain: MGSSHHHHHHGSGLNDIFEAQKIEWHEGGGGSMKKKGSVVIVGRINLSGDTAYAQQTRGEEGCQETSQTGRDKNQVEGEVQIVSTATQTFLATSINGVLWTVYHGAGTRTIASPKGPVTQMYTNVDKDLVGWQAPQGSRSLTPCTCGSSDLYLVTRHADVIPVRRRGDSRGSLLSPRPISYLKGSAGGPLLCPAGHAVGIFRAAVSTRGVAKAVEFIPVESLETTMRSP


How the values were obtained:
[1] = biological target: T1, HCV NS3/4A PR K136N (S139A background), …; assay: SPR Biacore 8K, with simeprevir
[2] = biological target: T2, HCV NS3/4A PR K136D (S139A background), …; assay: SPR Biacore 8K, with simeprevir
[3] = biological target: T3, HCV NS3/4A PR D168E (S139A background), …; assay: SPR Biacore 8K, with simeprevir
[4] = biological target: T1, HCV NS3/4A PR K136N (S139A background), …
[5] = biological target: T2, HCV NS3/4A PR K136D (S139A background), …
[6] = biological target: T3, HCV NS3/4A PR D168E (S139A background), …
[7] = biological target: T1, HCV NS3/4A PR K136N (S139A background), …
[8] = biological target: T2, HCV NS3/4A PR K136D (S139A background), …
[9] = biological target: T3, HCV NS3/4A PR D168E (S139A background), …
[10] = biological target: T2, HCV NS3/4A PR K136D (S139A background), …; assay: SPR Biacore 8K, simeprevir titrated
[11] = biological target: T4, BSA, in the presence of simeprevir (UniProt P02769 25-607); assay: SPR Biacore 8K, PRSIM immobilised, BSA + 10 nM simeprevir
T4 construct: also called BSA control

[12] = biological target: T5, HCV NS3/4A PR (S139A):simeprevir complex (Hepatitis C virus subtype 1a); assay: phage ELISA
[13] = biological target: T5, HCV NS3/4A PR (S139A):simeprevir complex; assay: HTRF, with simeprevir
[14] = biological target: T5, HCV NS3/4A PR (S139A):simeprevir complex; assay: SPR Biacore 8K, PRSIM immobilised, protease flowed with 10 nM simeprevir

T4 sequence (P02769 25-607 limits assumed): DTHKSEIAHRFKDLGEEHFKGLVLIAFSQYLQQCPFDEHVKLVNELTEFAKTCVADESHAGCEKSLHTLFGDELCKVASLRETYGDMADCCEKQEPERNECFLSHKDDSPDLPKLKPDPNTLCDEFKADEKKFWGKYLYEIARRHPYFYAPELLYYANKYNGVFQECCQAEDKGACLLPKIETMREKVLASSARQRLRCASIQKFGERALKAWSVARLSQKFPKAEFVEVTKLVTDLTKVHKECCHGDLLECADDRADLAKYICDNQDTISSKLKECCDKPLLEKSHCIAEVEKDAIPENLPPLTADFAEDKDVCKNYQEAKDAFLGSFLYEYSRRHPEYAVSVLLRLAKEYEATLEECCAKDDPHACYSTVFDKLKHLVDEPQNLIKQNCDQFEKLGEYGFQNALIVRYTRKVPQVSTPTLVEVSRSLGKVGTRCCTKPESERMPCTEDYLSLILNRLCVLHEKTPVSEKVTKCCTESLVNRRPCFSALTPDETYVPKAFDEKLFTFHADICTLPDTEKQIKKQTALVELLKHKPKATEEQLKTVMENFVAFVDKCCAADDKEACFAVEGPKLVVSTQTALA

| Binder | binding result [11] | Binding fold change [(HCV protease + Simeprevir binding)/HCV protease alone] [12] | HTRF max. signal (% delta F) [13] | Kd [14] | further results |
| --- | --- | --- | --- | --- | --- |
| PRSIM_23 (designed binder) RLDAPSQIEVKDVTDTTALITWVDPRYDDIWWFELTYGIKDVPGDRTTIKLYLNDPYYSIGNLKPDTEYEVSLISYTGDSYSRSGSNPAKITFKTGL |  |  |  |  | fold decrease of affinity against 'Wt' [1]: 6 to 7 fold; fold decrease of affinity against 'Wt' [2]: 6 to 7 fold; fold decrease of affinity against 'wt' protease [3]: ~3 fold; Kd [4]: 39.5 nM; kon [4]: 5.31e+08 M⁻¹ s⁻¹; Kd [5]: 33 nM; Kd [6]: 14.7 nM; Simeprevir EC50 for induction of heterodimerisation [7]: 8.06 nM; Simeprevir EC50 for induction of heterodimerisation [8]: 132 nM; Simeprevir EC50 for induction of heterodimerisation [9]: 3.69 nM; fold increase of the simeprevir EC50 against the wt complex [10]: ~30 fold |
| PRSIM_33 (designed binder) RLDAPSQIEVKDVTDTTALITWYPPGRWYDDIWYFELTYGIKDVPGDRTTIKLARGDDVYSIGNLKPDTEYEVSLISWGPDRGDRAGSNPAKITFKTGL | no binding (tested: 20 nM) | 29.9 fold | 1700 % delta F | 8.3 nM | koff [14]: 0.0303 s⁻¹; kon [14]: 3.65e+06 M⁻¹ s⁻¹ |
| PRSIM_32 (designed binder) RLDAPSQIEVKDVTDTTALITWWSPRYYYASISGFELTYGIKDVPGDRTTIKLDYASNDYSIGNLKPDTEYEVSLISWNYGDWRYSSSNPAKITFKTGL | no binding (tested: 20 nM) | 22.4 fold | 1960 % delta F | 16 nM |  |
| PRSIM_67 (scFv) scFv: EVQLVQSGAEVKKPGAAVRISCKTSGYVFTSYYVHWVRQAPGQGLEWMGVINPSGGNTNYAQKFQDRVTMTRDTSTTTVYMELSSLMFDDTAVYYCAKRDYGGPLANWGRGTLVTVSSGGGGSGGGGSGGGGSALSYELTQPPSVSEAPRQRVTISCSGSSSNIGNNAVNWYQQLPGKAPKLLIFYDDLLPSGVSDRFSGSKSGTSASLAISGLQSEDEADYYCAAWDDSLNGLVFGTGTKLTVL | no binding (tested: 20 nM) |  |  |  |  |
| PRSIM_75 (scFv) scFv: EVQLVQSGAEVKKPGSSVKVSCKASGGSFNSYTLDWVRQAPGQGLEWMGGIIPVFGSPNYGQKFQGRVTITADESTSTAYMELSSLKSDDTAVYYCARGLVYQPLDSWGRGTLVTVSSGGGGSGGGGSGGGGSAQAVLTQPSSASGTPGQRVTISCSGSSSNIGSYTVNWYQQFPGTAPKLLIYSNTQRPSGVPDRFSGSKSGTSASLAISGLQSEDEADYYCAAWDDSLNGWVFGGGTKVTVL | no binding (tested: 20 nM) |  |  |  |  |
| PRSIM_36 (designed binder) RLDAPSQIEVKDVTDTTALITWSWPRDDDYDIWYFELTYGIKDVPGDRTTIKLLNYASPYSIGNLKPDTEYEVSLISVVPDTYGRGTSNPAKITFKTGL | no binding (tested: 20 nM) | 27.9 fold | 1440 % delta F | 9.7 nM | koff [14]: 0.0498 s⁻¹; kon [14]: 5.15e+06 M⁻¹ s⁻¹ |
| PRSIM_72 (scFv) scFv: QVQLVQSGAEVKKPGSSVKVSCKVSGGSFNNYGVSWVRQAPGQGLEWMGRIIPIRDTANYAQKFQGRVTITADTSTNIAYMELSGLRSDDTAVYYCARVLEDDFWGGYYDFYFYVMDVWGQGTLVTVSSGGGGSGGGGSGGGGSALSSELTQDPVVSVPLGQTARITCQGDSLTTYYATWYQQKPGQAPVLVLYNEHKRPSGISDRFSGSSAGDAASLTITDTQAEDEADYYCSSRDTGGKHVLFGGGTKLTVL | no binding (tested: 20 nM) |  |  |  |  |
| PRSIM_47 (designed binder) RLDAPSQIEVKDVTDTTALITWSRPGVSIWYFELTYGIKDVPGDRTTIKLDYRSYYYSIGNLKPDTEYEVSLISGSYGLVGVRASNPAKITFKTGL | no binding (tested: 20 nM) | 25.3 fold | 1370 % delta F | 3.9 nM |  |
| PRSIM_04 (scFv, also called PRSIM_4) scFv: QVQLVQSGAEVKKPGSSVKVSCKASGGTFSSYAISWVRQAPGQGLEWMGGIIPIFGTANYAQKFQGRVTITADESTSTAYMELSSLRSEDTAVYYCARGMAHFYQFDLWGQGTLVTVSSGGGGSGGGGSGGGGSAQSVLTQPPSASGTPGQRVTISCSGSSSNIGSNTVNWYQQLPGTAPKLLIYSNNQRPSGVPDRFSGSKSGTSASLAISGLQSEDEADYYCAAGDHDHEHVVFGGGTKLTVL | no binding (tested: 20 nM) |  |  |  |  |
| PRSIM_57 (scFv) scFv: QVQLVQSGAEVKKPGSSVKVSCKASGGTFSSYAISWVRQAPGQGLEWMGGIIPIFGTANYAQKFQGRVTITADESTSTAYMELSSLRSEDTAVYYCARHTNYITVFDYWGQGTLVTVSSGGGGSGGGGSGGGGSAQSVLTQPPSASGTPGQRVTISCSGSSSNIGSNTVNWYQQLPGTAPKLLIYSNNQRPSGVPDRFSGSKSGTSASLAISGLQSEDEADYYCAAWDHHWEQVVFGGGTKLTVL | no binding (tested: 20 nM) |  |  |  |  |
